In one series the target is His-PRRX1A (His-PA) (UniProt P54821-2 1-217). The experiment in a line: MST; 10 mM Mg2+; Kd only in figure; EMSA: 20 mM Tris-HCl pH 7.4, 10 mM MgCl2, 2.5% glycerol, 0.05% NP-40, 0.1 ug/ul BSA, RT, 200 nM DNA; MST: 20 mM Tris-HCl pH 7.4, 150 mM NaCl, 10 mM MgCl2, 2.5%. As to conditions: protein: recombinant; tags: His (pET-28a); label: 3' 6-FAM on strand 1; blunt.
The next series addresses MBP-PA R146A (UniProt P54821-2 1-217, R146A). Description: pull-down; dsDNA, blunt inferred; EMSA: 20 mM Tris-HCl pH 7.4, 10 mM MgCl2, 2.5% glycerol, 0.05% NP-40, 0.1 ug/ul BSA, RT, 200 nM DNA; MST: 20 mM Tris-HCl pH 7.4, 150 mM NaCl, 10 mM MgCl2, 2.5%. As to conditions: protein: recombinant, tags: N-term MBP, label: 3' biotin on strand 1. On the technique in general: A gel shift assay detects complexes by their altered migration in electrophoresis.

A further series has as its target MBP-PA HD (UniProt P54821-2 94-153). The experiment in a line: pull-down; EMSA: 20 mM Tris-HCl pH 7.4, 10 mM MgCl2, 2.5% glycerol, 0.05% NP-40, 0.1 ug/ul BSA, RT, 200 nM DNA; MST: 20 mM Tris-HCl pH 7.4, 150 mM NaCl, 10 mM MgCl2, 2.5%. As to conditions: protein: recombinant; tags: N-term MBP; label: 3' biotin on strand 1; blunt.
The next series addresses MBP-PA NRRMut (UniProt P54821-2 1-217, N144A;R145A;R146A). Described as above. As to conditions: protein: recombinant; tags: N-term MBP; label: 3' biotin on strand 1; blunt.
A further series has as its target MBP-PRRX1A (MBP-PA) (UniProt P54821-2 1-217). The description is as above. As to conditions: protein: recombinant, tags: N-term MBP (pMAL-c2X).

Chain of MBP-PRRX1A (MBP-PA) (P54821 other isoform, or with tags, fused parts or gaps): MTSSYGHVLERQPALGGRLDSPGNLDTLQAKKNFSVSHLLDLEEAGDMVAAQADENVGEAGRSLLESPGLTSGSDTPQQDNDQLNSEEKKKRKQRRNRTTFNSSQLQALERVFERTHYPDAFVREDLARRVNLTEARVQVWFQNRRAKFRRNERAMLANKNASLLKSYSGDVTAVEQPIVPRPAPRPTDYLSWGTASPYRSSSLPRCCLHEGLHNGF
Chain of MBP-PA HD (P54821 94-153): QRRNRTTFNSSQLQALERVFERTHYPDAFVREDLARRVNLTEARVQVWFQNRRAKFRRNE
Chain of MBP-PA R146A (P54821 other isoform, or with tags, fused parts or gaps R146A | R146A R146A): as the sequence (P54821 other isoform, or with tags, fused parts or gaps) above, with R146A counted along it
Chain of MBP-PA NRRMut (P54821 other isoform, or with tags, fused parts or gaps N144A;R145A;R146A): as the sequence (P54821 other isoform, or with tags, fused parts or gaps) above, with N144A, R145A, R146A counted along it
Chain of His-PRRX1A (His-PA) (P54821 other isoform, or with tags, fused parts or gaps): as the sequence (P54821 other isoform, or with tags, fused parts or gaps) above

B1: MST blunt (Oligo#3-S/#1-A) (dsDNA)
DNA 1: AAGATGTTGTTTACACGAGGGCTCGAGCCCTCGTGTAAACAACATCTTTTTTTG
DNA 2: CAAAAAAAGATGTTGTTTACACGAGGGCTCGAGCCCTCGTGTAAACAACATCTT
With B1, in the series with His-PRRX1A (His-PA), the binding result was “binds”.

B2: blunt dsDNA 54 bp, biotinylated (Oligo#1-S/#1-A) (dsDNA)
DNA 1: AAGATGTTGTTTACACGAGGGCTCGAGCCCTCGTGTAAACAACATCTTTTTTTG
DNA 2: CAAAAAAAGATGTTGTTTACACGAGGGCTCGAGCCCTCGTGTAAACAACATCTT
For B2, the binding result with MBP-PA R146A is “no binding”; with MBP-PA HD, “no binding”; with MBP-PA NRRMut, “no binding”; with MBP-PRRX1A (MBP-PA) (label: 3' biotin on strand 1, blunt), “binds”.

B3: 3' overhang DNA (Oligo#1-A/#2-S) (dsDNA)
DNA 1: CAAAAAAAGATGTTGTTTACACGAGGGCTCGAGCCCTCGTGTAAACAACATCTT
DNA 2: GAGCCCTCGTGTAAACAACATCTTTTTTTG
For the molecule B3, the binding result in the series with MBP-PRRX1A (MBP-PA) (label: 3' biotin on strand 2, 3' overhang 24 nt (strand 1)) is reported as “binds”.

B4: 5' overhang DNA (Oligo#1-S/#2-A) (dsDNA)
DNA 1: AAGATGTTGTTTACACGAGGGCTCGAGCCCTCGTGTAAACAACATCTTTTTTTG
DNA 2: CAAAAAAAGATGTTGTTTACACGAGGGCTC
Take B4: the binding result in the series with MBP-PRRX1A (MBP-PA) (label: 3' biotin on strand 1, 5' overhang 24 nt (strand 1)) was “binds”.

Consider GAGCCCTCGTGTAAACAACATCTTTTTTTG (ssDNA) [ssDNA Oligo#2-S], for which the binding result with MBP-PRRX1A (MBP-PA) (label: 3' biotin, single strand) was “no binding”.

The values above are taken from paper PMC11925728, “Homeodomain protein PRRX1 anchors the Ku heterodimers at DNA double-strand breaks to promote nonhomologous end-joining”.
